The assay deals with Pfs25 (Plasmodium falciparum) (UniProt P13829). Briefly: cell-based or functional assay.

Results on 1 substance are retold here after patent publication US20210324015A1.

Sequence of UniProt P13829 (P13829 17-196): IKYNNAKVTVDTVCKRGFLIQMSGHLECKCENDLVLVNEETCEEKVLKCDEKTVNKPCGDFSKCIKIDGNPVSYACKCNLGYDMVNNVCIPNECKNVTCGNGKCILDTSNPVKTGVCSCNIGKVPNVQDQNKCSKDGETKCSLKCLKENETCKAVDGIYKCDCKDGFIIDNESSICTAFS

For the substance anti-Pfs25 mAb 4B7 (antibody), the % inhibition estimate (standard membrane feeding assay, SMFA) was 93.8%.
